Km, kcat and kcat/Km data for two molecules are collected here from article PMC8155666, “Engineering Promiscuous Alcohol Dehydrogenase Activity of a Reductive Aminase AspRedAm for Selective Reduction of Biobased Furans” (Frontiers in Chemistry, 2021).

In data set [1] the test system is T1, O=Cc1ccc(CO)o1.
T1 construct: recombinant, purified
In words: purified protein. The settings on record: 0.2 mM NADH, 100 mM Tris-HCl pH 8, 30°C, 1 μM-5 mM HMF, 37 μg/ml enzyme. In kind it is biochemical, Aspergillus oryzae.

Substrate in data set [2]: O=Cc1ccc(CO)o1
Description: purified protein. The conditions noted are these: 0.2 mM NADH, 100 mM Tris-HCl pH 9, 30°C, 1 μM-5 mM HMF, 43 μg/ml enzyme.

In general, kcat refers to the number of substrate molecules converted per active site and unit of time at saturation. For orientation: kcat/Km means the second-order rate constant that governs catalysis at low substrate concentration.

“AspRedAm (Aspergillus oryzae RIB40; N93A)”: in data set [1], the Km is recorded as 4.1 ± 0.7 ×10^-3 mM, the kcat worked out at 0.0967 ± 0.0076 s⁻¹ and the kcat/Km is 23600 ± 2000 M⁻¹ s⁻¹.

B1: AspRedAm (Aspergillus oryzae RIB40) (protein)
chain: MSKHIGIFGLGAMGTALAAKYLEHGYKTSVWNRTTAKAIPLVEQGAKLASTISEGVNANDLIIICLLNNQVVEDALRDALQTLPSKTIVNLTNGTPNQARKLADFVTSHGARYIHGGIMAVPTMIGSPHAVLLYSGESLELFQSIESHLSLLGMSKYLGTDAGSASLHDLALLSGMYGLFSGFLHAVALIKSGQDTSTTATGLLPLLTPWLSAMTGYLSSIAKQIDDGDYATQGSNLGMQLAGVENIIRAGEEQRVSSQMILPIKALIEQAVGEGHGGEDLSALIEYFKVGKNVD
With B1, in data set [2], the Km is on record as 1.3 ± 0.2 ×10^-3 mM, the kcat is 0.0175 s⁻¹ and the specificity constant (kcat/Km) amounted to 13100 M⁻¹ s⁻¹.
